{
  "source": "paper PMC10861901",
  "target": "A. fulgidus DsrC-trisulfide (Archaeoglobus fulgidus)",
  "assay": "SPR",
  "note": "pKd: −log10 of the molar value.",
  "data": [
    {"substance": "DsrMKJOP complex of Archaeoglobus fulgidus (from UniProt O29749 1-332; O29748 1-555; O29747 1-142; O29751 27-269; O29750 1-395)", "values": [
      {"measurement": "pKd", "value": 6.70}
    ]}
  ]
}
